Target: T1, EGFR501Fcflag (ErbB1501.Fc fusion protein homodimer) (human, UniProt P00533 25-525)
T1 construct: Captured from 293T supernatant on protein G coated wells; also called truncated form of the extracellular domain of the EGF receptor, expressed as an Fc fusion homodimer; not shown: spacer peptide N-terminal of the Fc; human IgG1 Fc region (from a genomic fragment)
Experiment: Eu-EGF displacement by unlabelled EGF from the Fc fusion homodimer captured on protein G; the reference value is from the literature
Description: Ligand binding assays. The wells of a 96-well Lumitrac 600 plate (Greiner) were coated with protein G (2 ug/ml in 10 mM sodium citrate buffer, pH 9.6; Sigma). […] After incubation at room temperature, wells were aspirated, washed in TBS plus 0.05% Tween-20, and Enhancement Solution (Perkin-Elmer) added to each well for 20 minutes.

B1: EGF (species not stated) (ligand)
chain: NSYPGCPSSYDGYCLNGGVCMHIESLDSYTCNCVIGYSGDRCQTRDLRWWELR
modifications: In the FIG. 8 assay the trace is EGF mono-labelled with a europium chelate (Wallac); site not stated. The EGF in the ultracentrifuge is unlabelled.
notes: Kept apart from hEGF and mEGF because these experiments say only EGF; the two experiments may have used different EGF; also called unlabelled EGF; Eu-EGF (Wallac)
fold higher affinity than that reported for the full-length ErbB1 ectodomain-Fc fusion protein: 10 fold
